Test results: US20160083713

T1: Protein 3: Erythrobacter sp. SD-21 PAL-like domain with N-terminal TAP purification tag (ribosomal protein L9 from T. maritima) and HRV14 3C protease site linker
T1 sequence: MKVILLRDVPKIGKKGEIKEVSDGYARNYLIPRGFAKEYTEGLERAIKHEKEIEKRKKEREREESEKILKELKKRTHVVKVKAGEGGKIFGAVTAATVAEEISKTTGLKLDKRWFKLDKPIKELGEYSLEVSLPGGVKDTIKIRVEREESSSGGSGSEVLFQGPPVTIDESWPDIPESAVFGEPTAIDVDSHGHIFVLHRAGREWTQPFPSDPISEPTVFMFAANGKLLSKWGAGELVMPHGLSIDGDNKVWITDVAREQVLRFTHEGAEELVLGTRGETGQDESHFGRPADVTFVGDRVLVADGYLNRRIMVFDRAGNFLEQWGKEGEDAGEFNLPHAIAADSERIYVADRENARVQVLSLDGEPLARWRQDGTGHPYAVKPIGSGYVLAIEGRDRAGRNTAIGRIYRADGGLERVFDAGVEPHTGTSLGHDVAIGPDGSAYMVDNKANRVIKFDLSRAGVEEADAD

T2: Protein 8: Exiguobacterium PAL-like domain with N-terminal TAP purification tag and HRV14 3C protease site linker
T2 sequence: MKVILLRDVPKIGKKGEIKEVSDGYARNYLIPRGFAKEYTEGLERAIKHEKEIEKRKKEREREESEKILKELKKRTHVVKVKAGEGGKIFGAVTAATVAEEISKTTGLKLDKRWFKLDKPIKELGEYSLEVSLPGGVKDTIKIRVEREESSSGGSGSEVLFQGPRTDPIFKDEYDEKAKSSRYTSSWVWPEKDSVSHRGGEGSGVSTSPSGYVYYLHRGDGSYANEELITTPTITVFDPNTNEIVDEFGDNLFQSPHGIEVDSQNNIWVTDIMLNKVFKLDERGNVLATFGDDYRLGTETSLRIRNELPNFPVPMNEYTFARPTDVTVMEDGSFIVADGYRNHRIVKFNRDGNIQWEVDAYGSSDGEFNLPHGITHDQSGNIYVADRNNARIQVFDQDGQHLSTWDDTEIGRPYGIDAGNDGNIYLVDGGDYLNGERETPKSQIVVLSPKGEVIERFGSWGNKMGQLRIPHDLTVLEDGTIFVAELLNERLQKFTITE

T3: TAP tagged amylin analog model peptide (SEQ ID NO:17), alpha-hydroxyglycine intermediate form
T3 chain: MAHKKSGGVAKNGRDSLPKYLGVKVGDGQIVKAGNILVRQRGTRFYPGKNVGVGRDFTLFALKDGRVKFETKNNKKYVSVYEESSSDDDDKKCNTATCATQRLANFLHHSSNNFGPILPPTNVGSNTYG

T4: TAP tagged C-terminal Gly extended amylin analog model peptide (SEQ ID NO:17), precursor form
T4 chain: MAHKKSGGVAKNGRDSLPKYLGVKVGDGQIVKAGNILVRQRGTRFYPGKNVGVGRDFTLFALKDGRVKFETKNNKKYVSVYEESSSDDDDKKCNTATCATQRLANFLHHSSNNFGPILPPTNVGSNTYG

B1: Protein 10: Planctomyces DSM 8797 PAL-like domain with N-terminal TAP purification tag and HRV14 3C protease site linker (protein)
chain: MKVILLRDVPKIGKKGEIKEVSDGYARNYLIPRGFAKEYTEGLERAIKHEKEIEKRKKEREREESEKILKELKKRTHVVKVKAGEGGKIFGAVTAATVAEEISKTTGLKLDKRWFKLDKPIKELGEYSLEVSLPGGVKDTIKIRVEREESSSGGSGSEVLFQGPADKIDFEPAAINIELPEGLALGPASAVDFDSKGRMYLFHRGPQPILVFDQSGKFVRSWGDKLISQAHGLRVAPDETIWVTDIGNHMVFQFNPEGKLLLALGQAGKPGDSQDQFNKPTDIAFGPQGEFYISDGYGNSRVMKFAANGKNLGQWGTPGKGPGEFNLPHSILVDAKGRVLVGDRENDRVQIFDLEGNLLEIWTGFAPYGMEFDSRGNLFVADGRANKVLQLNASGKVENSWGKTGKEPGEYNLPHMLAVDAAGNLFVTEIGGKRLQKLQRK
B2: Erythrobacter PAL-like domain (SEQ ID NO: 1) (protein)
chain: GPPVTIDESWPDIPESAVFGEPTAIDVDSHGHIFVLHRAGREWTQPFPSDPISEPTVFMFAANGKLLSKWGAGELVMPHGLSIDGDNKVWITDVAREQVLRFTHEGAEELVLGTRGETGQDESHFGRPADVTFVGDRVLVADGYLNRRIMVFDRAGNFLEQWGKEGEDAGEFNLPHAIAADSERIYVADRENARVQVLSLDGEPLARWRQDGTGHPYAVKPIGSGYVLAIEGRDRAGRNTAIGRIYRADGGLERVFDAGVEPHTGTSLGHDVAIGPDGSAYMVDNKANRVIKFDLSRAGVEEADAD
B3: Protein 3: Erythrobacter sp. SD-21 PAL-like domain with N-terminal TAP purification tag (ribosomal protein L9 from T. maritima) and HRV14 3C protease site … (protein)
chain: MKVILLRDVPKIGKKGEIKEVSDGYARNYLIPRGFAKEYTEGLERAIKHEKEIEKRKKEREREESEKILKELKKRTHVVKVKAGEGGKIFGAVTAATVAEEISKTTGLKLDKRWFKLDKPIKELGEYSLEVSLPGGVKDTIKIRVEREESSSGGSGSEVLFQGPPVTIDESWPDIPESAVFGEPTAIDVDSHGHIFVLHRAGREWTQPFPSDPISEPTVFMFAANGKLLSKWGAGELVMPHGLSIDGDNKVWITDVAREQVLRFTHEGAEELVLGTRGETGQDESHFGRPADVTFVGDRVLVADGYLNRRIMVFDRAGNFLEQWGKEGEDAGEFNLPHAIAADSERIYVADRENARVQVLSLDGEPLARWRQDGTGHPYAVKPIGSGYVLAIEGRDRAGRNTAIGRIYRADGGLERVFDAGVEPHTGTSLGHDVAIGPDGSAYMVDNKANRVIKFDLSRAGVEEADAD
B4: rat PHM domain (amino acids 36 to 497 of the 976 aa full-length rat PAM sequence), His tagged (protein)
chain: FKETTRSFSNECLGTIGPVTPLDASDFALDIRMPGVTPKESDTYFCMSMRLPVDEEAFVIDFKPRASMDTVHHMLLFGCNMPSSTGSYWFCDEGTCTDKANILYAWARNAPPTRLPKGVGFRVGGETGSKYFVLQVHYGDISAFRDNHKDCSGVSVHLTRVPQPLIAGMYLMMSVDTVIPPGEKVVNADISCQYKMYPMHVFAYRVHTHHLGKVVSGYRVRNGQWTLIGRQNPQLPQAFYPVEHPVDVTFGDILAARCVFTGEGRTEATHIGGTSSDEMCNLYIMYYMEAKYALSFMTCTKNVAPDMFRTIPAEANIPIPVKPDMVMMHGHHKEAENKEKSALMQQPKQGEEEVLEQGDFYSLLSKLLGEREDVHVHKYNPTEKTESGSDLVAEIANVVQKKDLGRSDAREGAEHEEWGNAILVRDRIHRFHQLESTLRPAESRAFSFQQPGEGPWEPEPSG
B5: Planctomyces PAL-like domain (SEQ ID NO: 4) (protein)
chain: GPADKIDFEPAAINIELPEGLALGPASAVDFDSKGRMYLFHRGPQPILVFDQSGKFVRSWGDKLISQAHGLRVAPDETIWVTDIGNHMVFQFNPEGKLLLALGQAGKPGDSQDQFNKPTDIAFGPQGEFYISDGYGNSRVMKFAANGKNLGQWGTPGKGPGEFNLPHSILVDAKGRVLVGDRENDRVQIFDLEGNLLEIWTGFAPYGMEFDSRGNLFVADGRANKVLQLNASGKVENSWGKTGKEPGEYNLPHMLAVDAAGNLFVTEIGGKRLQKLQRK

Tests used:
[1] = system: T1, Protein 3: Erythrobacter sp. SD-21 PAL-like domain with N-terminal TAP purification tag (ribosomal protein L9 from T. maritima) and HRV14 3C protease site linker
[2] = system: T2, Protein 8: Exiguobacterium PAL-like domain with N-terminal TAP purification tag and HRV14 3C protease site linker
[3] = biological target: T3, TAP tagged amylin analog model peptide …
[4] = biological target: C-terminal alpha-hydroxyglycine extended Pramlintide (alpha-hydroxylated SEQ ID NO:25)
[5] = biological target: C-terminally Gly-extended Pramlintide (SEQ ID NO: 25)
[6] = biological target: T4, TAP tagged C-terminal Gly extended …

Molecule | conversion to the alpha amidated form, LC-MS, co-incubation with rat PHM at 37 C [3] | conversion of the alpha-hydroxyglycine intermediate to alpha amidated Pramlintide, LC-MS, 37 C, 1 h [4] | further results
TAP tagged HRV14 3C protease (from WO 2008/043847) |  |  | proteolytic cleavage at the linker, LC-MS and SDS-PAGE, overnight at 30 C, enzyme to substrate 1:25 [1]: resulted in two fragments determined to 33323 Da and 18284.78 Da corresponding to the released PAL-like domain ... and to the released purification tag and HRV14 3C linker; proteolytic cleavage at the linker, SDS-PAGE, overnight, enzyme to substrate 1:25 [2]: two fragments corresponding to the mature Exiguibacterium PAL-like domain (SEQ ID NO:2) (upper band) and the released TAP tag (SEQ ID NO:7-SEQ ID NO:8) (lower band) was present in the application
B1 | With protein 10 total conversion of the precursor was observed already after 1 h-2 h incubation |  | 
B2 |  | could almost completely convert the peptide substrate to fully alpha-amidated peptide using a enzyme to substrate ratio of 1:100 | 
B3 | near complete conversion to the alpha amidated form required 5 hours incubation with the protein 3 enzyme |  | 
B4 |  |  | conversion of Gly-extended Pramlintide to the alpha-hydroxyglycine form, LC-MS, enzyme to substrate 1:20 (w/w), 37 C, 2 h [5]: it was verified that the intermediate alpha-hydroxyglycine form of Pramlintide was obtained; conversion of the C-terminal Gly to alpha-hydroxyglycine, LC-MS after 2 hours at 37 C [6]: the vast majority of the model peptide was on the intermediate form comprising a α-hydroxyglycine in the C-terminal
B5 |  | could almost completely convert the peptide substrate to fully alpha-amidated peptide using a enzyme to substrate ratio of 1:100 | 
